This is an account of results in patent US20190336574A1 (TRUSTEES OF PRINCETON UNIVERSITY, published 2019).

Experiment [1] deals with T1, HA-SND1, full-length human, wild type (human, UniProt Q7KZF4 1-910).
T1 construct: Full-length, HA-tagged; Expressed in HEK293T cells, tested in lysate; also called HA-tagged SND1; WT HA-SND1
T1 sequence: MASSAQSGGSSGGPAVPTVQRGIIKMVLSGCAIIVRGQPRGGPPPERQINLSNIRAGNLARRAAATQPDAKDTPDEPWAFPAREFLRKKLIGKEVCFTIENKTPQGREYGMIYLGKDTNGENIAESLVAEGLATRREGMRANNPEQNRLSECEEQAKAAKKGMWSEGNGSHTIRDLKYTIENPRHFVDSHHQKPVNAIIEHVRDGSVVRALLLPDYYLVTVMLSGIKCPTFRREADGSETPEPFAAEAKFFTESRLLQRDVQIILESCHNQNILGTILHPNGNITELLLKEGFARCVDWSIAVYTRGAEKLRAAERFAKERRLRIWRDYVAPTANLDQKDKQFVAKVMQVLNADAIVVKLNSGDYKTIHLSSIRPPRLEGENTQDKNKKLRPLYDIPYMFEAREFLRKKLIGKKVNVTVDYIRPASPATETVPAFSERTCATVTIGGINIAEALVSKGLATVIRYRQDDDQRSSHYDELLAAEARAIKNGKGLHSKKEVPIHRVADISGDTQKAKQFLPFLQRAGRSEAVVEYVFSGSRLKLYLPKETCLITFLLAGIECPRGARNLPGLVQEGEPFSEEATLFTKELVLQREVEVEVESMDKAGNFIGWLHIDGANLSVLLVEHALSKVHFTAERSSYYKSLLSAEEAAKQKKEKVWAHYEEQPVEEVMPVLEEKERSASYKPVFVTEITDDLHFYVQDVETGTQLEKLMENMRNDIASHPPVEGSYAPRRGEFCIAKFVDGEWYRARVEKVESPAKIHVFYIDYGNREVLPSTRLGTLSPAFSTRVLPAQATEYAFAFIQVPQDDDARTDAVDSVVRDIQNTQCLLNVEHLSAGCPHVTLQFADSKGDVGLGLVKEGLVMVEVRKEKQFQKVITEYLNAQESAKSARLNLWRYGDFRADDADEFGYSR
Briefly: co-IP (anti-Myc) from HEK293T lysates, western blot. In general terms: A western blot detects proteins with antibodies after separation by electrophoresis.

Experiment [2] has as its target T2, His-SND1 (16-339), SN1/2 domains, wild type (human, UniProt Q7KZF4 16-339).
T2 construct: also called His6-SND1 harboring the SN1/2 domains; not shown: N-terminal His tag (His6, His8 or His) with TEV site, pQlink vector
T2 sequence: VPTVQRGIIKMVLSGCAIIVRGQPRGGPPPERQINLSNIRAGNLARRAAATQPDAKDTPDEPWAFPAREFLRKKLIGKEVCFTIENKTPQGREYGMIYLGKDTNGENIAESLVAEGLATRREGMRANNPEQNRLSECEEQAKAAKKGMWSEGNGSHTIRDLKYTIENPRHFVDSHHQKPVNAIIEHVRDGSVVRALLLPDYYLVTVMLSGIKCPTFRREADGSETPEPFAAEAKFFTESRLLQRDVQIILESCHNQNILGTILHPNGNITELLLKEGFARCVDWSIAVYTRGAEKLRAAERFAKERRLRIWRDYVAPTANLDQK
Briefly: GST pull-down on glutathione resin, SDS-PAGE, Coomassie blue; normalised percentage of binding, mean±SEM of three experiments. The source says:
The proteins bound to GS4B were examined on SDS-PAGE and visualized by Coomassie blue staining. […] The bound proteins were examined as in (FIG. 22A). For both (FIG. 22A) and (FIG. 22B), experiments were repeated three times; representative results are shown. The normalized percentage of binding was averaged from three experiments; mean±SEM was shown below the data. (FIG. 22C) HEK293T cells were transfected with human HA-SND1, WT Myc-MTDH or Myc-MTDH with indicated single point mutation. Lysates were immunoprecipitated with anti-Myc antibody and immunoblotted with the indicated antibodies. (FIG. 22D) HEK293T cells were transfected with human Myc-MTDH, WT HA-SND1 or mutant HA-SND1 with indicated single point mutations or deletions. Lysates were immunoprecipitated with anti-Myc and immunoblotted with the indicated antibodies.
GST-Mediated Pull-Down Assay: ˜20 μg of GST-MTDH (different truncation forms and site mutants) was bound to 10 μl of glutathione resin via GST tag. The resin was washed with 200 μl assay buffer (25 mM Tris, PH8.0, 150 mM NaCl, 3 mM DTT) three times to remove the excess unbound protein. […] The mixture was washed with 200 μl assay buffer twice before examined by SDS-PAGE, and visualized by Coomassie blue staining. The experiments were repeated 3 times and the ratio of SND1 associated with GST-MTDH was analyzed by ImageJ.
Identification of MTDH and SND1 mutants deficient in binding: To gain insight into how the interface characterized above contributes to MTDH-SND1 interaction, structure-guided mutagenesis studies were performed.

B1: Myc-MTDH D393R, full-length human (other)
chain: MAARSWQDELAQQAEEGSARLREMLSVGLGFLRTELGLDLGLEPKRYPGWVILVGTGALGLLLLFLLGYGWAAACAGSRKKRRSPPRKREEAAAVPAAAPDDLALLKNLRSEEQKKKNRKKLSEKPKPNGRTVEVAEGEAVRTPQSVTAKQPPEIDKKNEKSKKNKKKSKSDAKAVQNSSRHDGKEVDEGAWETKISHREKRQQRKRDKVLTDSGSLDSTIPGIENTITVTTEQLTTASFPVGSKKNKGDSHLNVQVSNFKSGKGDSTLQVSSGLNENLTVNGGGWNEKSVKLSSQISAGEEKWNSVSPASAGKRKAEPSAWSQDTGDANTNGKDWGRSWSDRSIFSGIGSTAEPVSQSTTSDYQWDVSRNQPYIDDEWSGLNGLSSADPNSRWNAPAEEWGNWVDEERASLLKSQEPIPDDQKVSDDDKEKGEGALPTGKSKKKKKKKKKQGEDNSTAQDTEELEKEIREDLPVNTSKTRPKQEKAFSLKTISTSDPAEVLVKNSQPIKTLPPATSTEPSVILSKSDSDKSSSQVPPILQETDKSKSNTKQNSVPPSQTKSETSWESPKQIKKKKKARRET
notes: Full-length, Myc-tagged; also called SPM12
Regarding B1, in experiment [1], the binding result was “binds”.

B2: Myc-MTDH E407R, full-length human (other)
chain: MAARSWQDELAQQAEEGSARLREMLSVGLGFLRTELGLDLGLEPKRYPGWVILVGTGALGLLLLFLLGYGWAAACAGSRKKRRSPPRKREEAAAVPAAAPDDLALLKNLRSEEQKKKNRKKLSEKPKPNGRTVEVAEGEAVRTPQSVTAKQPPEIDKKNEKSKKNKKKSKSDAKAVQNSSRHDGKEVDEGAWETKISHREKRQQRKRDKVLTDSGSLDSTIPGIENTITVTTEQLTTASFPVGSKKNKGDSHLNVQVSNFKSGKGDSTLQVSSGLNENLTVNGGGWNEKSVKLSSQISAGEEKWNSVSPASAGKRKAEPSAWSQDTGDANTNGKDWGRSWSDRSIFSGIGSTAEPVSQSTTSDYQWDVSRNQPYIDDEWSGLNGLSSADPNSDWNAPAEEWGNWVDRERASLLKSQEPIPDDQKVSDDDKEKGEGALPTGKSKKKKKKKKKQGEDNSTAQDTEELEKEIREDLPVNTSKTRPKQEKAFSLKTISTSDPAEVLVKNSQPIKTLPPATSTEPSVILSKSDSDKSSSQVPPILQETDKSKSNTKQNSVPPSQTKSETSWESPKQIKKKKKARRET
notes: Full-length, Myc-tagged; also called SPM33
Turning to B2, in experiment [1], the binding result was “binds”.

B3: Myc-MTDH D406R, full-length human (other)
chain: MAARSWQDELAQQAEEGSARLREMLSVGLGFLRTELGLDLGLEPKRYPGWVILVGTGALGLLLLFLLGYGWAAACAGSRKKRRSPPRKREEAAAVPAAAPDDLALLKNLRSEEQKKKNRKKLSEKPKPNGRTVEVAEGEAVRTPQSVTAKQPPEIDKKNEKSKKNKKKSKSDAKAVQNSSRHDGKEVDEGAWETKISHREKRQQRKRDKVLTDSGSLDSTIPGIENTITVTTEQLTTASFPVGSKKNKGDSHLNVQVSNFKSGKGDSTLQVSSGLNENLTVNGGGWNEKSVKLSSQISAGEEKWNSVSPASAGKRKAEPSAWSQDTGDANTNGKDWGRSWSDRSIFSGIGSTAEPVSQSTTSDYQWDVSRNQPYIDDEWSGLNGLSSADPNSDWNAPAEEWGNWVREERASLLKSQEPIPDDQKVSDDDKEKGEGALPTGKSKKKKKKKKKQGEDNSTAQDTEELEKEIREDLPVNTSKTRPKQEKAFSLKTISTSDPAEVLVKNSQPIKTLPPATSTEPSVILSKSDSDKSSSQVPPILQETDKSKSNTKQNSVPPSQTKSETSWESPKQIKKKKKARRET
notes: Full-length, Myc-tagged; also called SPM32
B3: the binding result in experiment [1] is given as “binds”.

B4: GST-MTDH (364-582) N403A (other)
chain: YQWDVSRNQPYIDDEWSGLNGLSSADPNSDWNAPAEEWGAWVDEERASLLKSQEPIPDDQKVSDDDKEKGEGALPTGKSKKKKKKKKKQGEDNSTAQDTEELEKEIREDLPVNTSKTRPKQEKAFSLKTISTSDPAEVLVKNSQPIKTLPPATSTEPSVILSKSDSDKSSSQVPPILQETDKSKSNTKQNSVPPSQTKSETSWESPKQIKKKKKARRET
notes: not shown: N-terminal GST tag with TEV site, pQlink vector
Regarding B4, in experiment [2], the “% Maximum binding” value was found to be 68%.

B5: GST-MTDH (364-582) W401D (other)
chain: YQWDVSRNQPYIDDEWSGLNGLSSADPNSDWNAPAEEDGNWVDEERASLLKSQEPIPDDQKVSDDDKEKGEGALPTGKSKKKKKKKKKQGEDNSTAQDTEELEKEIREDLPVNTSKTRPKQEKAFSLKTISTSDPAEVLVKNSQPIKTLPPATSTEPSVILSKSDSDKSSSQVPPILQETDKSKSNTKQNSVPPSQTKSETSWESPKQIKKKKKARRET
notes: as for B4
As for B5, the “% Maximum binding” value in experiment [2] was 46%.
